Experimental data taken from PMC9468336, “The choanoflagellate pore-forming lectin SaroL-1 punches holes in cancer cells by targeting the tumor-related glycosphingolipid Gb3” (Communications Biology, 2022).
“And” between values parts separate entries of the source, which are not always exact repeats. Equal values may be shown once.

Tests used:
[1] = Dextran influx into GUVs (pore formation); format: biochemical; conditions: for GUVs filled with dextran-AF488, average %: 3 kDa dextran; for GUVs filled with 70 kDa FITC-dextran, average %: 70 kDa dextran
Description: GUVs were composed of 1,2-dioleoyl-sn-glycero-3-phosphocholine (DOPC), cholesterol (both AvantiPolar Lipids, United States), Atto 647 N 1,2-dioleoyl-sn-glycero-3-phosphoethanolamine (DOPE; Sigma-Aldrich), and one of the following glycolipids at a molar ratio of 64.7:30:0.3:5. The glycolipids are globotriaosylceramide (Gb3, Matreya), FSL-Gb3 (Function-Spacer-Lipid with globotriaosyl saccharide), and corresponding FSL-isoGb3 (Function-Spacer-Lipid with iso-globotriaosyl saccharide) synthetized as previously described[84],[85], FSL-A(tri) (Function-Spacer-Lipid with blood group A trisaccharide; Sigma-Aldrich), FSL-B(tri) (Function-Spacer-Lipid with blood group B trisaccharide; Sigma-Aldrich) or lactosylceramide (LC, Sigma-Aldrich).
GUVs were prepared by the electroformation method as earlier described. Briefly, lipids dissolved in chloroform of a total concentration of 0.5 mg/mL were spread on indium tin oxid-covered (ITO) glass slides and dried in a vacuum for at least 1 h or overnight. Two ITO slides were assembled to create a chamber filled with sucrose solution adapted to the osmolarity of the imaging buffer of choice, either HBSS (live-cell imaging) or PBS (GUVs only imaging). Then, an alternating electrical field with a field strength of 1 V/mm was implemented for 2.5 h at RT. Later we observed the GUVs in chambers manually built as described.
Dextran Alexa Fluor 488 (Dextran-AF488) with a MW of 3 kDa (Thermo Fischer) or 70 kDa FITC-dextran (Sigma-Aldrich) was added to the observation chamber (0.02 mg/mL) in PBS buffer together with 200 nM SaroL-1. Then wt Gb3-containing GUVs (40 µL) were added for imaging and monitoring of pore-formation. Dextran-AF488 was present in the GUVs’ surrounding solution. For PNPG treatment, 200 nM of SaroL-1 was pre-incubated with 10 mM PNPG dissolved in DMSO for 15 min at RT in the observation chamber. Directly after, dextran-AF488 (0.02 mg/mL) and 40 µL wt Gb3-containing GUVs were added to the observation chamber and monitored using confocal microscopy.

SaroL-1 = target: T1, SaroL-1 (Salpingoeca rosetta, UniProt F2UID9); assay: Isothermal titration calorimetry (MicroCal iTC200) at 25 °C in 20 mM Tris/HCl pH 7.5, 100 mM NaCl, ligand titrated into SaroL-1, one-site model with stoichiometry N fixed to 3.; format: binding
T1 construct: gene PTSG_08235; monomeric in solution
Experimental: Isothermal Titration Calorimetry (ITC)
ITC experiments were performed with MicroCaliTC200 (Malvern Panalytical). Experiments were carried out at 25 °C ± 0.1 °C. SaroL-1 and ligands samples were prepared in Buffer A. The ITC cell contained SaroL-1 in a concentration range from 0.05 mM to 0.16 mM. The syringe contained the ligand solutions in a concentration from 10 to 50 mM. 2 μL of ligands solutions were injected into the sample cell at intervals of 120 s while stirring at 750 rpm. Integrated heat effects were analysed by nonlinear regression using one site binding model (MicroCal PEAQ-ITC Analysis software). The experimental data were fitted to a theoretical curve, which gave the dissociation constant (Kd) and the enthalpy of binding (∆H).

H1299 cells = assay: Cell proliferation (MTT) assay; format: cell-based, human
Experimental: The human lung epithelial cell line H1299 (American Type Culture Collection, CRL-5803) was cultured in a complete medium, consisting of Roswell Park Memorial Institute (RPMI) medium supplemented with 10% fetal calf serum (FCS) and 2 mM L-glutamine at 37 °C and 5% CO2. Cells were stimulated with different concentrations of SaroL-1 in a complete medium for indicated time points.
To investigate the cytotoxic effect of SaroL-1 on human cells, H1299 cells were treated with increasing concentrations of SaroL-1 for 24 h in a standard MTT assay. For the depletion of Gb3 from the plasma membrane, H1299 cells were treated with 2 µM PPMP for 72 h before the experiment. 3.5 × 10^4 cells per well were transferred to a 96-well plate with a U-bottom. The cells were centrifuged at 1600 × g for 3 min at RT. The cell pellet was re-suspended in 100 μL of variously concentrated protein solutions (3, 14, 27, 68, 135, 270, 680, 1360 nM) and transferred to a 96-well flat-bottomed plate. The cells were incubated for 24 h at 37 °C. Subsequently, 10 μL of MTT labelling solution (MTT Cell Proliferation Kit, Roche) was added to each well, and the cells were incubated for 4 h at 37 °C. Then, 100 μL of the solubilisation reagent was added to each well, and the plate was incubated at 37 °C overnight. The next day, the absorbance of the samples was measured at 550 nm using a BioTek microplate reader. To assess SaroL-1 cytotoxicity in the presence of the soluble sugar PNPG, 3.5 × 10^4 cells per well were transferred to a 96-well plate with a U-bottom. Variously concentrated protein solutions (3, 14, 27, 68, 135, 270, 680, 1360 nM) were preincubated with 10 mM PNPG dissolved in complete medium, for 15 min at RT. The cells were centrifuged at 1600 × g for 3 min at RT. Next, the cell pellet was re-suspended in 100 μL protein solution and transferred to a 96-well flat-bottomed plate. The cells were incubated for 24 h at 37 °C, and the MTT assay was performed as described above. The data was further analyzed using GraphPad Prism software.

rabbit erythrocytes = assay: Hemolytic assay (HA); format: cell-based
Experimental: Both HA and IHA assays were performed in U-shaped 96-well microtiter plates. In both cases, a control negative experiment was performed with Buffer A added to erythrocyte solution (2% final concentration), and the resulting value was subtracted from all data.
SaroL-1 with an initial concentration of 27 μM was diluted by serial 2-fold dilution in Buffer A. Rabbit erythrocytes were purchased from Atlantis France and used without further washing. The erythrocytes were diluted to a 4% solution in 150 mM NaCl. Protein solution and rabbit erythrocytes were mixed together in a 1:1 ratio and incubated for 1 h at 37 °C. After the samples were centrifuged, 2600 × g for 15 min at RT and the absorbance of the supernatant was measured at 540 nm by a Tecan reader.

[2] = 200 nM SaroL-1, 30 min, listed as SaroL1
[3] = 200 nM SaroL-1, 120 min, listed as SaroL1

O=[N+]([O-])c1ccc(O[C@H]2O[C@H](CO)[C@H](O)[C@H](O)[C@H]2O)cc1 [PNPG, p-nitrophenyl-α-D-galactopyranoside]
GUVs filled with dextran-AF488, average % ([1]; 200 nM SaroL-1 pre-treated with 10 mM PNPG, 0 min): 0% | GUVs filled with dextran-AF488, average % ([1]; 200 nM SaroL-1 pre-treated with 10 mM PNPG, 60 min): 0.4205% | GUVs filled with dextran-AF488, average % ([1]; 200 nM SaroL-1 pre-treated with 10 mM PNPG, 120 min): 4% and 4.251% | Kd (SaroL-1): 1010 µM | reduction of SaroL-1-induced cell death (H1299 cells; SaroL-1 (3-1358 nM) pre-incubated with 10 mM PNPG, 24 h): > 90%

B1: SaroL-1: Recombinant pore-forming lectin of Salpingoeca rosetta (UniProt F2UID9, 329 amino acids) with β-trefoil and aerolysin-like domains (protein)
chain: MSSTFEPATDSPLPVPGVQYFLQHVQSGKYVHPHGGSDMPGNDTALVLHHGFDEKRDALRWVFVNDAENKHQLKHYSSGKFVHPKGGKVGKEATLVVHSSPGRPETMIEMVQEDGRTYLRHTDSDYYVHPHGGSPNPGDNTRLVYYSGYRPSLAFLAIPAETLFVDRIEIHQAQALESINTITSLSDEHRNDTDQPVQTSISVALEESLQDSAQLSFERCFGLKVGSEFEVGLPLVGKTKVSVQFSGSWKSSTIKGEVRTSAVKVQINEHVTIPPGKCVQIRIDTRRCTKTAPATMYLRTASGIEVQRETTVTSTYHYDQEVHVVPVTN
modifications: left off: His6, N-terminal, state not stated
notes: Recombinant pore-forming lectin of Salpingoeca rosetta (UniProt F2UID9, 329 amino acids) with β-trefoil and aerolysin-like domains
Hemolysis MEAN % (rabbit erythrocytes; SaroL-1 7 nM): -2.217% | Hemolysis MEAN % (rabbit erythrocytes; SaroL-1 14 nM): -0.8961% | Hemolysis MEAN % (rabbit erythrocytes; SaroL-1 27 nM): -0.5487% | Hemolysis MEAN % (rabbit erythrocytes; SaroL-1 55 nM): 5.667% | Hemolysis MEAN % (rabbit erythrocytes; SaroL-1 110 nM): 24.3716% | Hemolysis MEAN % (rabbit erythrocytes; SaroL-1 217 nM): 59.5625% | Hemolysis MEAN % (rabbit erythrocytes; SaroL-1 423 nM): 85.1119% | Hemolysis MEAN % (rabbit erythrocytes; SaroL-1 843 nM): 95.7679% | Hemolysis MEAN % (rabbit erythrocytes; SaroL-1 1680 nM): 93.9729% | Hemolysis MEAN % (rabbit erythrocytes; SaroL-1 3400 nM): 95.1481% | Hemolysis MEAN % (rabbit erythrocytes; SaroL-1 6790 nM): 95.7781% | Hemolysis MEAN % (rabbit erythrocytes; SaroL-1 13590 nM): 100% | GUVs filled with dextran-AF488, average % ([1]; 200 nM SaroL-1, 0 min): 11.106% | GUVs filled with dextran-AF488, average % ([1]; 200 nM SaroL-1, 30 min): 45% | GUVs filled with dextran-AF488, average % [1, 2]: 45.1678% | GUVs filled with dextran-AF488, average % ([1]; 200 nM SaroL-1, 60 min): 57.8615% | GUVs filled with dextran-AF488, average % ([1]; 200 nM SaroL-1, 120 min): 69% | GUVs filled with dextran-AF488, average % [1, 3]: 69.3211% | GUVs filled with 70 kDa FITC-dextran, average % ([1]; 200 nM SaroL-1, 0 min): 4.422% | GUVs filled with 70 kDa FITC-dextran, average % ([1]; 200 nM SaroL-1, 30 min): 17% | GUVs filled with 70 kDa FITC-dextran, average % [1, 2]: 16.9551% | GUVs filled with 70 kDa FITC-dextran, average % ([1]; 200 nM SaroL-1, 60 min): 29% | GUVs filled with 70 kDa FITC-dextran, average % ([1]; 200 nM SaroL-1, 60 min, listed as SaroL1): 28.4248% | GUVs filled with 70 kDa FITC-dextran, average % ([1]; 200 nM SaroL-1, 120 min): 29% | GUVs filled with 70 kDa FITC-dextran, average % [1, 3]: 29.7507% | reduction of cell viability (H1299 cells; 24 h, 1.36 µM SaroL-1): ~ 87% | IC50 (H1299 cells; 24 h, FCS-containing medium, read-out: concentration at which the percentage of viable cells decreased by half): 0.271 µM | cytotoxicity on Gb3-depleted cells (in words) (H1299 cells; H1299 pre-treated with PPMP for 72 h, 24 h with SaroL-1): remarkably reduced
